# Assay results from patent publication US20250381269A1 (FORTVITA BIOLOGICS SINGAPORE PTE, published 2025).
# T1: human B7H3 (B73-H52E2, Acro Biosystem) (human, UniProt Q5ZPR3-2 29-245)
# T1 construct: also called CD276; antigen B
# T1 sequence (looked up): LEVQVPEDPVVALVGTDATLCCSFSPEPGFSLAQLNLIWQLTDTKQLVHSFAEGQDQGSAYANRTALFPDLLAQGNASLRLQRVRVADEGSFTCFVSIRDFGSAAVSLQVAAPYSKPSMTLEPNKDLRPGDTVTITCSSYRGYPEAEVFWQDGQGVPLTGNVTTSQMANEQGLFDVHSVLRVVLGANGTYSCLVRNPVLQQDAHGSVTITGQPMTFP
# B1: Hz19A2.25/Zalu bsAb bispecific antibody molecule (bispecific antibody, human IgG1, kappa)
# heavy 1: not shown
# light 1: not shown
# heavy 2: not shown
# light 2: EIVLTQSPATLSLSPGERATLSCSVSSSVQSNYLYWYQQKPGQAPRLLIYGTSNLASGIPARFSGSGSGTDFTLTISSLEPEDFAVYYCYQWSSYPFTFGQGTKLEIKRTVAAPSVFIFPPSDEQLKSGTASVVCLLNNFYPREAKVQWKVDNALQSGNSQESVTEQDSKDSTYSLSSTLTLSKADYEKHKVYACEVTHQGLSSPVTKSFNRGEC
# notes: IgG1-like, four polypeptide chains, Innobody heterodimer Fc mutations; low fucose (GlymaxX)
# B2: Hz5C2.9/Zalu bsAb bispecific antibody molecule (bispecific antibody, human IgG1, kappa)
# heavy 1: not shown
# light 1: not shown
# heavy 2: not shown
# light 2: EIVLTQSPGTLSLSPGERATLSCRSSQSLVHSQGITYLDWYQQKPGQAPRLLIYKVSNRFSGIPDRFSGSGSGTDFTLTISRLEPEDFAVYYCSQGTHVPPWTFGGGTKVEIKRTVAAPSVFIFPPSDEQLKSGTASVVCLLNNFYPREAKVQWKVDNALQSGNSQESVTEQDSKDSTYSLSSTLTLSKADYEKHKVYACEVTHQGLSSPVTKSFNRGEC
# notes: as for B1
# B3: Hz20G5.26/Zalu bsAb bispecific antibody molecule (bispecific antibody, human IgG1, kappa)
# heavy 1: not shown
# light 1: not shown
# heavy 2: not shown
# light 2: DIQLTQSPSFLSASVGDRVTITCSASSSVSYIHWYQQKPGKAPKRWIYDTSRLASGVPSRFSGSGSGTEFTLTISSLQPEDFATYYCQQWSSAPLTFGGGTKVEIKRTVAAPSVFIFPPSDEQLKSGTASVVCLLNNFYPREAKVQWKVDNALQSGNSQESVTEQDSKDSTYSLSSTLTLSKADYEKHKVYACEVTHQGLSSPVTKSFNRGEC
# notes: also called anti-B7-H3/EGFR bispecific antibody
# Key:
# [1] = molecular target: T2, human EGFR (EGR-H5222, Acro Biosystem) (human, UniProt P00533 25-645); assay: BLI (Octet Red96e), antibody captured on AHC sensor, human EGFR 100 nM in solution
# T2 construct: Bought reagent; also called antigen A
# [2] = molecular target: T1, human B7H3 (B73-H52E2, Acro Biosystem); assay: BLI (Octet Red96e), antibody captured on AHC sensor, human B7H3 100 nM in solution
# [3] = molecular target: EGFR R521K on HT-55 and LS180 cells (UniProt P00533 25-1210, limits assumed); assay: cell-based or functional assay
# [4] = molecular target: EGFR Del19 (amplified) on H1650 cells (UniProt P00533 25-1210); assay: cell-based or functional assay
# [5] = molecular target: EGFR, wild type, on tumour cells (H508, TE-1, Colo-680N, H292, H322, H358; amplified in SK-MES-1 and H1703) (UniProt P00533 25-1210, limits assumed); assay: cell-based or functional assay
# [6] = molecular target: EGFR L858R/T790M on H1975 cells (UniProt P00533 25-1210, limits assumed); assay: cell-based or functional assay
# [7] = molecular target: EGFR R521K/Y1069C on CCK-81 cells (UniProt P00533 25-1210, limits assumed); assay: cell-based or functional assay
binder,measurement,setting,value
B1,Kd,[1],4.19 nM
same,koff,[1],0.00121 s⁻¹
same,kon,[1],289000 M⁻¹ s⁻¹
same,Kd,[2],6.73 nM
same,koff,[2],0.00219 s⁻¹
same,kon,[2],326000 M⁻¹ s⁻¹
B2,Kd,[1],4.69 nM
same,koff,[1],0.00124 s⁻¹
same,kon,[1],264000 M⁻¹ s⁻¹
same,Kd,[2],8.25 nM
same,koff,[2],0.00352 s⁻¹
same,kon,[2],427000 M⁻¹ s⁻¹
B3,Kd,[1],4.59 nM
same,"IC50(nM), proliferation inhibition, HT-55 cells",[3],0.14 nM
same,"IC50(nM), proliferation inhibition, LS180 cells",[3],1.33 nM
same,"IC50(nM), proliferation inhibition, H1650 cells",[4],4.86 nM
same,"IC50(nM), proliferation inhibition, Colo-680N cells",[5],12.3 nM
same,"IC50(nM), proliferation inhibition, H292 cells",[5],57.8 nM
same,"IC50(nM), proliferation inhibition, H508 cells",[5],1.08 nM
same,"IC50(nM), proliferation inhibition, SK-MES-1 cells (EGFR amplification)",[5],0.4 nM
same,"IC50(nM), proliferation inhibition, TE-1 cells",[5],16 nM
same,"IC50(nM), proliferation inhibition, H1975 cells",[6],0.99 nM
same,"IC50(nM), proliferation inhibition, CCK-81 cells",[7],0.24 nM
same,Kd,[2],2.48 nM
